Assays:
[1] = test system: DSS-induced colitis; assay: DSS-induced colitis dose-response (0.3, 3, 10, 30 mg/kg): in-life, necropsy, histology; format: in vivo, C57BL6/J mice
Experimental: DSS-induction of murine colitis was performed by Bolder BioPATH, Inc. (CO, USA). Female C57BL6/J mice (8-10 weeks old) were given 2.5% dextran sodium sulfate (w/v) (Spectrum, Lot #2DC0020) ad libitum in the drinking water from day 0 through day 7. On day 7, DSS was replaced with water, and the animals were maintained until day 10.
Colon histology was scored based on inflammation, gland loss, erosion and hyperplasia (max of 5 each), and these were totaled in the summary score. […] Five additional parameters (edema, neutrophil infiltration, mucosal thickness, lymphoid aggregate and lymphoid aggregate size) were also quantified. […] These histological results thus indicate a mild degree of local drug efficacy.

[2] = Plasma rhIL-10, IL-10 delivery construct and IL-1Ra immunoassays, DSS study; format: in vivo, mice; details: 0.3 and 3 mg/kg, 4 hours after final dose
From the text: Plasma cytokines were quantified using the V-plex Proinflammatory Panel 1 Mouse Kit. Plasma IL-1Ra was quantitated by sandwich immunoassay using an antibody pair from the Mouse IL-1Ra/IL-1F3 DuoSet ELISA (R&D Systems #DY480), Streptavidin SULFO-TAG Labeled (MSD #R32AD-1), Multi-Array 96 Plate Pack, SECTOR Plate MSD #L15XA-3 and Read Buffer T (4×) (MSD #R92TC-2). Samples were read on the QuickPlex SQ 120 plate reader (Meso Scale Discovery, Rockville, Md.).
The Human IL-10 Base kit (MSD #K151AOA-4) was used to measure rhIL-10 in plasma. […] The MSD Small Spot IL-10 plate was incubated with Diluent 41 (25 μL/well) for 30 minutes at room temperature with shaking before use. Controls and samples were diluted 2-fold with pooled CD-1 mouse plasma (BioIVT, custom order), and the calibration standards were also prepared in mouse plasma. Standards, diluted samples and controls were added (25 μL/well), and the plate was incubated for 2 hours at room temperature with shaking. The plate was washed 3 times with phosphate buffered saline with Tween-20 (PBST), and 25 μL/well 1×SULFO TAG Anti-human IL-10 Antibody (prepared in Diluent 45) was added to the plate. The plate was incubated for 1 hour at room temperature with shaking. Following a wash step, 150 μL/well of 2×MSD Read buffer was added, and the plate was read in the MSD Sector Imager 600 plate reader.

[3] = test system: colonic marker expression; assay: Colonic sigmoidoscopy spray in NHP: pro-/anti-inflammatory and tissue repair markers; format: in vivo, Macaca fascicularis; details: 1, 3, 10 mg
Experimental: To assess the effect of an IL-10 delivery construct on pro-inflammatory and anti-inflammatory markers the IL-10 delivery construct was delivered to male Macaca fascicularis monkeys (about 5 to about 8 kg) by colonic sigmoidoscopy with a spray nozzle. The IL-10 delivery construct was administered at doses of 1 mg, 3 mg, and 10 mg formulated in albumin.

[4] = PK/PD by route (oral, subcutaneous, intravenous) in NHP; format: in vivo, Macaca fascicularis
From the text: For oral administration the IL-10 delivery construct was formulated in size 0 enteric coated capsules. For intravenous or subcutaneous administration it was formulated as a liquid in DS lyo formulation.

[5] = Intraluminal injection in T-cell transfer model: rhIL-10 ELISA in intestinal tissue and serum; format: in vivo, BALB/c and SCID mice
Experimental: This study was conducted to examine the potential for the carrier protein to transport rhIL-10 from the intestinal lumen into the submucosal region in inflamed intestinal tissue. The T lymphocyte (T cell) transfer model was used as it is a well-established model of induced chronic colitis in mice and presents many of the essential immunological hallmarks observed in IBD patients. Nine BALB/c mice and twelve SCID mice, including nine with the colitis-like model of inflammation, were dosed with 20 μl of test article via intraluminal injection into the distal ileum and the proximal, middle and distal colon. […] In each group, two mice were terminated 10 minutes after intraluminal injections, and one was terminated 40 minutes after intraluminal injections. Intestinal tissue and serum were collected. Collected tissue was fixed, embedded, sectioned and H&E stained for histological assessment of inflammatory status. ELISA analysis to measure rhIL 10 was performed on lysates prepared from intestinal tissue and serum (FIGS. 106A-106D).

[6] = test system: ulcerative colitis; assay: Phase 1b multiple ascending dose in patients with active ulcerative colitis; format: in vivo, human; details: for placebo-adjusted mean reduction of FCP: baseline FCP >150 μg/g
Experimental: Data was gathered on the safety, tolerability, pharmacokinetics, pharmacodynamics, and initial clinical response following a multiple ascending dose (MAD) of the IL-10 delivery construct in adult patients with active UC over 14 days of treatment. […] A coating with a weight ratio of 50:50 of Eudragit® L30D55: Eudragit® FS30D was applied with a thickness of 14.8 to 16.0 mg/cm^2 and a weight of approximately 76 mg to each capsule. Placebo capsules were generated using similarly coated empty capsules.
A total of four cohorts were dosed with either 1 mg, 3 mg, 10, mg or 30 mg of the IL-10 delivery construct, randomized 3:1 to receive the IL-10 delivery construct or a placebo administered once daily for fourteen days. The goal of the trial was to assess the safety of the IL-10 delivery construct and any change in UC disease activity, through endoscopy, histology, biomarkers, and serum samples. Stool samples and colonic biopsies were obtained at baseline and day 14 of treatment to assess fecal calprotectin as well as histology based upon blinded central read of the Geboes scoring system. Fecal calprotectin is an objective marker of clinical response in UC studies and the Geboes scoring system is a measure of histological response. The Geboes scoring system of this example used a 0-22 point histologic scoring system in which higher scores represent more severe disease.

[7] = test system: human SMI-100 monolayers; assay: Transport across polarized human small intestinal cell monolayers (SMI-100), western blot; details: apical to basal, 2 hr
[8] = 1 mg once daily for 14 days, n = 3 UC patients
[9] = 3 mg once daily for 14 days, n = 3 UC patients
[10] = 10 mg once daily for 14 days, n = 3 UC patients
[11] = 30 mg once daily for 14 days, n = 3 UC patients

B1: IL-10 delivery construct: recombinant homodimeric fusion protein: N-terminal methionine, cholix386 domain, polyGlySer spacer, recombinant human IL-10 (protein)
chain: MVEEALNIFDECRSPCSLTPEPGKPIQSKLSIPSDVVLDEGVLYYSMTINDEQNDIKDEDKGESIITIGEFATVRATRHYVNQDAPFGVIHLDITTENGTKTYSYNRKEGEFAINWLVPIGEDSPASIKISVDELDQQRNIIEVPKLYSIDLDNQTLEQWKTQGNVSFSVTRPEHNIAISWPSVSYKAAQKEGSRHKRWAHWHTGLALCWLVPMDAIYNYITQQNCTLGDNWFGGSYETVAGTPKVITVKQGIEQKPVEQRIHFSKGNAMSALAAHRVCGVPLETLARSRKPRDLTDDLSCAYQAQNIVSLFVATRILFSHLDSVFTLNLDEQEPEVAERLSDLRRINENNPGMVTQVLTVARQIYNDYVTHHPGLTPEQTSAGAQAGGGGSGGGGSGGGGSPGQGTQSENSCTHFPGNLPNMLRDLRDAFSRVKTFFQMKDQLDNLLLKESLLEDFKGYLGCQALSEMIQFYLEEVMPQAENQDPDIKAHVNSLGENLKTLRLRLRRCHRFLPCENKSKAVEQVKNAFNKLQEKGIYKAMSEFDIFINYIEAYMTMKIRN
modifications: homodimer
edema width, mucosal thickness, hyperplasia in the mid region ([1]; 30 mg/kg, relative to Vehicle): significantly improved
colon length ([1]; 10 and 30 mg/kg, p<0.05 vs vehicle): Significant improvement in colon length
DSS-induced weight loss ([1]; construct 30 mg/kg, CsA 75 mg/kg, q.d. oral): significantly reduced DSS-induced weight loss
summed histology score (inflammation, gland loss, erosion, hyperplasia) ([1]; mouse, in vivo): did not reveal any significant improvements
plasma rhIL-10 relative to background of Vehicle treatment [2]: 10-300 fold higher
expression of anti-inflammatory markers [3]: increased expression of anti-inflammatory markers
expression of pro-inflammatory markers [3]: decreased expression of pro-inflammatory markers
expression of tissue repair and wound healing biomarkers [3]: increased expression of biomarkers associated with tissue repair and wound healing
systemic levels of IL-10 after oral treatment ([4]; oral 1 mg or 5 mgs vs SC 0.2 mg/kg, IV 0.05 mg/kg): minimal systemic levels of IL-10
IL-1Ra/IL-1β ratio ([4]; subcutaneous or intravenous administration): minimal effect
rhIL-10 levels in inflamed tissue relative to rhIL-10 alone ([5]; 159 pmoles): approximately 10 fold higher
uptake in normal intestinal tissues compared to rhIL-10 alone ([5]; 159 pmoles): two- to five-fold higher
rhIL-10 in intestinal tissue compared to rhIL-10 alone ([5]; 159 pmoles, 10-minute exposure): substantially higher
rhIL-10 in serum of healthy animals ([5]; intraluminal injection): moderately high rhIL-10 detected
rhIL-10 in serum of inflamed animals ([5]; intraluminal injection): minimal amounts of rhIL-10 were detected
# of TEASs [6, 8]: 2
TEASs (% pts) [6, 8]: 67%
placebo-adjusted mean reduction of FCP ([6]; 1 mg, 14 days): 44%
# of TEASs [6, 9]: 7
TEASs (% pts) [6, 9]: 67%
placebo-adjusted mean reduction of FCP ([6]; 3 mg, 14 days): 27%
FCP activity at higher doses ([6]; 10 mg and 30 mg): diminution of activity at higher doses
# of TEASs [6, 10]: 5
TEASs (% pts) [6, 10]: 67%
Geboes score of one UC patient (22 point scale) ([6]; 10 mg, pre-dose to 14 days): improved from a score of 15 to a score of three
# of TEASs [6, 11]: 6
TEASs (% pts) [6, 11]: 67%
tolerability in patients with UC ([6]; 1, 3, 10, 30 mg once daily 14 days): well tolerated
CRP levels compared to placebo ([6]; 1 and 3 mgs, baseline CRP greater than 5 mg/L): greater reductions in CRP levels
TEAEs in the 12 active patients ([6]; 14 days): 20
patients with reduced Geboes scores ([6]; 14 days, (6/10) active patients): 60%
# of TEASs ([6]; All Active, n = 12 UC patients): 20
TEASs (% pts) ([6]; All Active, n = 12 UC patients): 67%
detection in systemic circulation ([6]; human, in vivo): not detected in systemic circulation
treatment emergent AEs of anemia or thrombocytopenia ([6]; human, in vivo): no treatment emergent AEs of anemia or thrombocytopenia were observed
transport across monolayers relative to rhIL-10 [7]: to a greater extent
